Measured values as given in publication PMC8115037, “Paracoccus denitrificans: a genetically tractable model system for studying respiratory complex I” (Scientific Reports, 2021).

B1: complex I (NADH:ubiquinone oxidoreductase), Pd-CI (Paracoccus denitrificans PD1222) (protein)
chain 1: MDGDIRKNSYDDGSMDALTGEQSIRNFNINFGPQHPAAHGVLRMVLELDGEIVERADPHIGLLHRGTEKLMESRTYLQNLPYLDRLDYVAPMNQEHAWCLAIERLTGTVIPRRASLIRVLYSEIGRILNHLMGVTTGAMDVGALTPPLWGFEAREELMIFYERACGARLHAAYFRPGGVHQDLPPDLLDDIEEWCERFPKLVDDLDTLLTENRIFKQRLVDIGIVTEADALDWGYTGVMVRGSGLAWDLRRSQPYECYDEFDFQIPVGRNGDCYDRYLCRMAEMRESCKIMQQAVQKLRAEPAGDVLARGKLTPPRRAEMKRDMESLIHHFKLYTEGFKVPAGEVYAAVEAPKGEFGVYLVADGTNKPWRAKLRAPGFAHLQSIDWMSRGHMLADVPAIIATLDIVFGEVDR
chain 2: MMTGLNTAGADRDLATAELNRELQDKGFLLTTTEDIINWARNGSLHWMTFGLACCAVEMMQTSMPRYDLERFGTAPRASPRQSDLMIVAGTLTNKMAPALRKVYDQMPEPRYVISMGSCANGGGYYHYSYSVVRGCDRIVPVDIYVPGCPPTAEALLYGILQLQRRIRRTGTLVR
chain 3: MAEFWASPYGFALSMLLQGLAVIAFVMGSLIFMVYGDRKIWAAVQMRRGPNVVGPWGLLQTFADALKYIVKEIVIPAGADKFVYFLAPFLSMMLALFAFVVIPFDEGWVMANINVGILFIFAASSLEVYGVIMGGWASNSKYPFLASLRSAAQMISYEVSLGLIIIGIIISTGSMNLTAIVEAQRGDYGLLNWYWLPHLPMVVLFFVSALAECNRPPFDLVEAESELVAGFMTEYSSTPYLLFMAGEYIAMYLMCALLSLLFFGGWLSPVPFIADGWWWMVIKMWFWFYMFAMVKAIVPRYRYDQLMRIGWKVFLPLSLGWVVLVAILARYEILGGFWARFAVGG
chain 4: MLNDQDRIFTNLYGMGDRSLAGAKKRGHWDGTAAIIQRGRDKIIDEMKASGLRGRGGAGFPTGMKWSFMPKESDGRPSYLVINADESEPATCKDREIMRHDPHTLIEGALIASFAMGAHAAYIYIRGEFIREREALQAAIDECYDAGLLGRNAAGSGWDFDLYLHHGAGAYICGEETALLESLEGKKGMPRMKPPFPAGAGLYGCPTTVNNVESIAVVPTILRRGAEWFASFGRPNNAGVKLFGLTGHVNTPCVVEEAMSIPMRELIEKHGGGIRGGWKNLKAVIPGGASCPVLTAEQCENAIMDYDGMRDVRSSFGTACMIVMDQSTDVVKAIWRLSKFFKHESCGQCTPCREGTGWMMRVMERLVRGDAEVEEIDMLFDVTKQVEGHTICALGDAAAWPIQGLIRNFREEIEDRIKAKRTGRMGAMAAE
notes: intact purified complex I, His6-tag on Nqo5; with multisubunit complex (14 core Nqo subunits plus PdNUMM, PdNUYM, PdN7BM)
B2: complex I (NADH:ubiquinone oxidoreductase), Pd-CI (Paracoccus denitrificans PD1222) (protein)
chain 1: B1 chain 1
chain 2: B1 chain 2
chain 3: B1 chain 3
notes: purified complex I reconstituted in proteoliposomes, His6-tag on Nqo5; with multisubunit complex (14 core Nqo subunits plus PdNUMM, PdNUYM, PdN7BM)

Tests used:
Assay type in all cases: biochemical, Paracoccus denitrificans
Conditions in all cases: FMN, FeS clusters
[1] = substrate: CCCCCCCCCCC1=C(C)C(=O)C(OC)=C(OC)C1=O; experiment: KM, NADH:DQ oxidoreduction by purified soluble enzyme
[2] = substrate: COC1=C(OC)C(=O)C(CC=C(C)C)=C(C)C1=O; experiment: KM, quinone reduction by purified soluble enzyme
purified protein = substrate: COC1=C(OC)C(=O)C(C/C=C(\C)CC/C=C(\C)CC/C=C(\C)CC/C=C(\C)CC/C=C(\C)CC/C=C(\C)CC/C=C(\C)CC/C=C(\C)CC/C=C(\C)CCC=C(C)C)=C(C)C1=O; experiment: purified protein

| Protein | Km [1] [µM] | Km [2] [µM] | Km (purified protein) [µM] |
| --- | --- | --- | --- |
| B1 | 169 ± 15 | 124 ± 8 | – |
| B2 | – | – | 1100 ± 200 |
